Data: PMC4459029, “Effects of receptor tyrosine kinase inhibitors on VEGF165a- and VEGF165b-stimulated gene transcription in HEK-293 cells expressing human VEGFR2” (British Journal of Pharmacology, 2015)
Where “and” joins values, the source holds several entries; their conditions need not be identical. Equal entries are not always repeated.

What was measured:
[1] = system: basal NFAT-luciferase activity; experiment: basal NFAT-luciferase production in VEGFR2 NFAT cells; type: cell-based, human; conditions: no VEGF; P < 0.05 one way ANOVA
Excerpt: HEK-293 cells expressing the human VEGFR2 and an NFAT reporter gene were provided by Promega Corporation. The NFAT reporter gene contained an NFAT response element linked via a minimal promoter to the firefly luciferase gene luc2P containing a human sequence enriched in proline (P), glutamic acid (E), serine (S) and threonine (T) protein destabilization sequence (Voon et al., [2005]). VEGFR2 NFAT cells were maintained in DMEM media supplemented with 10% FCS and 0.5% G418 in a humidified 5% CO2/95% air atmosphere at 37°C.
VEGFR2 NFAT cells were seeded in a T75 flask at 5 × 10^6 cells per flask using DMEM +10%FCS and incubated at 37°C in a 5% CO2/95% air atmosphere for 3 days until the cells were 100% confluent. On the fourth day, cells were washed with PBS and detached using 3 mL Versene® (ETDA 0.02% in PBS). Once cells had detached, 6 mL of DMEM +0.1%BSA was added and the cells were counted using a haemocytometer. […] After the 5 h incubation, 100 μL ONE-Glo Luciferase Assay reagent was added to each well and luminescence was measured according to the manufacturer's instructions on a Topcount platereader (Perkin Elmer, Llantrisant, UK).

human VEGFR2 = biological target: T1, human VEGFR2 (Homo sapiens, UniProt P35968); experiment: VEGFR2-stimulated NFAT-luciferase reporter gene activity in HEK-293 cells; type: cell-based
T1 construct: host or cells: HEK-293
T1 sequence (P35968 20-1356): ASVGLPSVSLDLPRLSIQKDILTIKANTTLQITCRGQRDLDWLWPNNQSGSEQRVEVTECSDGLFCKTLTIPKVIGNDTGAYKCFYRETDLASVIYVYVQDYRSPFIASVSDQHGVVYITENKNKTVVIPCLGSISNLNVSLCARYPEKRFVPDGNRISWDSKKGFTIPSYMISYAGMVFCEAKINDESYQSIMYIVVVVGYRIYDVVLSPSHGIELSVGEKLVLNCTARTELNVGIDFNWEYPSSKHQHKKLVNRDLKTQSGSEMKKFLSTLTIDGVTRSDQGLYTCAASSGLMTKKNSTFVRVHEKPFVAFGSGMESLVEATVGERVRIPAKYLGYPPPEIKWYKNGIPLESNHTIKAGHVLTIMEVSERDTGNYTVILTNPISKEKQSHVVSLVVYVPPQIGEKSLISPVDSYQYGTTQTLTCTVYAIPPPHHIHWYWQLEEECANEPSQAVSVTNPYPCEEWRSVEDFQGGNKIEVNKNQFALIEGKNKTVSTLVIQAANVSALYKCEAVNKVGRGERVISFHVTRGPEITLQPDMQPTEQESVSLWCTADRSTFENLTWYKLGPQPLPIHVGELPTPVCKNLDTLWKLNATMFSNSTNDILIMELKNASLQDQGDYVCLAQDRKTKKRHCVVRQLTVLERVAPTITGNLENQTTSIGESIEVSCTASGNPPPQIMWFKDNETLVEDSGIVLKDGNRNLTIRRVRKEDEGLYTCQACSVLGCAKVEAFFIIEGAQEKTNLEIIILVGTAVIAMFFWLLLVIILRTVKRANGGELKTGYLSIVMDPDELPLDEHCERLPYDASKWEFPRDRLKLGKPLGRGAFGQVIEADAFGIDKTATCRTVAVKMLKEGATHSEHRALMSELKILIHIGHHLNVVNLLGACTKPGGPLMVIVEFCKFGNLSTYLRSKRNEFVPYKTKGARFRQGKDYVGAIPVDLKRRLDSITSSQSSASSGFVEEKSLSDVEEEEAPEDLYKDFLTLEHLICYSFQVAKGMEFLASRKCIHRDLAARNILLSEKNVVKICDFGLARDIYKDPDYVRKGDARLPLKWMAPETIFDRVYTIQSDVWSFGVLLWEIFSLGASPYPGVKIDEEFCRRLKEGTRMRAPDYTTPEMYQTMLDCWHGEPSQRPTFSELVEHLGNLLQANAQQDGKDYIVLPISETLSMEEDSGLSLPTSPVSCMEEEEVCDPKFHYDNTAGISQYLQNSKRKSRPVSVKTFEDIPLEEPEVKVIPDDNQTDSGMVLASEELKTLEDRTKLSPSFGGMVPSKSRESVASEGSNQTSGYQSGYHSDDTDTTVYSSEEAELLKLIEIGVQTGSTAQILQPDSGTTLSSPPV
Procedure: HEK-293 cells expressing the human VEGFR2 and an NFAT reporter gene were provided by Promega Corporation.
On the fourth day, cells were washed with PBS and detached using 3 mL Versene® (ETDA 0.02% in PBS). Once cells had detached, 6 mL of DMEM +0.1%BSA was added and the cells were counted using a haemocytometer. Cells were centrifuged at 200× g for 5 min, resuspended in DMEM +0.1%BSA and seeded at a density of 4 × 10^4 cells per well in 80 μL DMEM +0.1%BSA in white-sided, clear flat-bottomed 96-well plates (Greiner, Stonehouse, UK), which had been coated with 0.01 mg·mL^−1 poly-D-lysine in PBS for 30 min and washed with DMEM. […] After the 5 h incubation, 100 μL ONE-Glo Luciferase Assay reagent was added to each well and luminescence was measured according to the manufacturer's instructions on a Topcount platereader (Perkin Elmer, Llantrisant, UK).
All data were fitted using non-linear regression in Prism 6 (GraphPad Software, San Diego, CA, USA).
A comparison of the extra sum of squares that resulted from the analysis with separate EC50 or Emax values (over that with one of the parameters shared) using the F-test (Prism 6) then allowed for statistical analysis of the difference between EC50 or Emax values. […]

| −Log EC50 (human VEGFR2; agonist-stimulated NFAT-luciferase response, 5 h incubation) | pKA at VEGFR2 (operational model) (human VEGFR2; partial agonist fit) | Molecule | concentration giving significant inhibition of basal NFAT-luciferase response [1] |
| --- | --- | --- | --- |
| – | – | COc1cc2c(Oc3ccc4[nH]c(C)cc4c3F)ncnc2cc1OCCCN1CCCC1 [Cediranib] | above 10 nM |
| 9.21 ± 0.08 | 8.83 and 8.8 | VEGF165b: VEGF-A exon 8 splice variant, lower-efficacy partial agonist at VEGFR2, from R&D systems (protein, disulfide-linked homodimer; natural exon 8b splice isoform (VEGF165b); limits are the mature chain after removal of the 26-residue signal pep) APMAEGGGQNHHEVVKFMDVYQRSYCHPIETLVDIFQEYPDEIEYIFKPSCVPLMRCGGCCNDEGLECVPTEESNITMQIMRIKPHQGQHIGEMSFLQHNKCECRPKKDRARQENPCGPCSERRKHLFVQDPQTCKCSCKNTDSRCKARQLELNERTCRSLTRKD | – |
